Assay results from paper doi:10.1101/2022.09.26.507364 (bioRxiv, 2022).

Target: T1, Long neurotoxin 1 (3L21_OXYSC) from O. scutellatus scutellatus (coastal taipan), recombinant long 3FTX (Oxyuranus scutellatus scutellatus)
T1 chain: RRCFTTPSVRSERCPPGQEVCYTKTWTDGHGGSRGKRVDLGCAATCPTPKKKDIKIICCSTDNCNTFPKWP
Test: SPR

B1: Centi-3FTX-D09 (antibody, V domains shown)
VH: EVQLVESGGGFVQPGGSLRLSCAASGFTFSNFDMHWVRQSPGKGLEWVSGLDHSGGAHYAGSVKGRFTISREDAKNSLDLQMNNLRVDDTAVYFCVRGTLYHYTSGSYYSDAFDIWGQGTLVTVSS
VL: EIVLTQSPSSLSASVGDRVTITCQASQDISNYLNWYQQKPGKAPKLLIYAASSLESGVPSRFSGSGSGTDFTLTISSQQPEDFATYYCQQANSFPYTFGQGTKVEIK
Kd: 490 pM
